The values below are quoted from earlier work in patent US20110217294A1, “COMBINATION OF HGF INHIBITOR AND HEDGEHOG INHIBITOR TO TREAT CANCER” (priority 2009, published 2011).

One data set deals with cMet receptor (Homo sapiens, UniProt P08581). The following applies: high affinity binding site.
Data set [1] has as its target heparin sulfate proteoglycans (HSPG). The following applies: low affinity binding site.

Sequence of cMet receptor (P08581 25-1390): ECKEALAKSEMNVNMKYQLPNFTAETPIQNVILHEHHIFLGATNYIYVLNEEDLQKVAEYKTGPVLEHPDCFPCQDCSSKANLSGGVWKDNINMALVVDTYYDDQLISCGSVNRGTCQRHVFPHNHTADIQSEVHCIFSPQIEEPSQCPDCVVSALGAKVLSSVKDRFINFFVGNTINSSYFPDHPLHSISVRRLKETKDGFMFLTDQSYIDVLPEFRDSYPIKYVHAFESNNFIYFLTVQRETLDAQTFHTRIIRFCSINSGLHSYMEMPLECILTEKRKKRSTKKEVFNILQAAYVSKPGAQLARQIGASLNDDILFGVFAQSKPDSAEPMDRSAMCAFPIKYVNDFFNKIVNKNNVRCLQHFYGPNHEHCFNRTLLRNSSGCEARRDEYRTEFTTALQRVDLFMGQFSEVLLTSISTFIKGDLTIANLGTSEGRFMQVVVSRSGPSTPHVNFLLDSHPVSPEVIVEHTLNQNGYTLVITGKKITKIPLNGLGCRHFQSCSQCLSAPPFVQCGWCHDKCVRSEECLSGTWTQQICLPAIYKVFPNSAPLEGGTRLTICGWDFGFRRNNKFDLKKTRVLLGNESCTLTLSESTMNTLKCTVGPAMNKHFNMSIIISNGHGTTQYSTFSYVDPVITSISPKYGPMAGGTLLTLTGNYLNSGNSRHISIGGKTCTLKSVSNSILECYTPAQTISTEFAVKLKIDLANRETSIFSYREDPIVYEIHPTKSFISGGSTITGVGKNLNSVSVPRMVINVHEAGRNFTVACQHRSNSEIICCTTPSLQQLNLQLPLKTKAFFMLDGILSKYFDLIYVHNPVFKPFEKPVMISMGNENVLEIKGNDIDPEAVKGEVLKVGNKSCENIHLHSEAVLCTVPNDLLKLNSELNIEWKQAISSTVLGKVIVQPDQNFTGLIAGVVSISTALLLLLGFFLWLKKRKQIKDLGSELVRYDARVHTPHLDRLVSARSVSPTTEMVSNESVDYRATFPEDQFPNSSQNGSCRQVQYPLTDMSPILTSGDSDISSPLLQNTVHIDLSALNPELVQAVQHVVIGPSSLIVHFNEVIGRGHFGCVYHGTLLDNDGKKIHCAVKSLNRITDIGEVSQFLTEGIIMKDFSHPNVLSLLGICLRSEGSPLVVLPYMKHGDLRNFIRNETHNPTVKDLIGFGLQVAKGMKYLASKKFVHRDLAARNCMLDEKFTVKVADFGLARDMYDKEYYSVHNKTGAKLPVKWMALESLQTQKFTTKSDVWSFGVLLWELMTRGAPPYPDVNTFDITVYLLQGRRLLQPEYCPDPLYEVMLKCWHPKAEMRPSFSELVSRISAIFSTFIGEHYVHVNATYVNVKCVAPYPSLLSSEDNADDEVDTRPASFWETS

As usually defined, the Kd is a measure of binding affinity in units of concentration. Consider “HGF: Human Hepatocyte Growth Factor, 102 kDa heterodimeric polypeptide”, for which the dissociation constant (Kd) with cMet receptor is 0.2 nM; in data set [1], 1 nM.
